Assay results from FireProtDB (doi:10.1006/jmbi.1997.1365).

Conditions: Homo sapiens, pH 2.7, Thermal, DSC, glycine 0.05 M, reversible: yes, whole UniProt chain shown

B1: Lysozyme C wild type, P61626 (protein)
chain: MKALIVLGLVLLSVTVQGKVFERCELARTLKRLGMDGYRGISLANWMCLAKWESGYNTRATNYNAGDRSTDYGIFQINSRYWCNDGKTPGAVNACHLSCSALLQDNIADAVACAKRVVRDPQGIRAWVAWRNRCQNRDVRQYVQGCGV
**Q.** With B1 as the protein, how does the “heat capacity change of unfolding” value (64.9 °C) read?
**A.** 1.58 kcal/mol/K

**Q.** What about the “unfolding enthalpy (calorimetric)” value (64.9 °C) of the same protein?
**A.** 114 kcal/mol

**Q.** What about the “unfolding enthalpy (van 't Hoff)” value (64.9 °C) of the same protein?
**A.** 120 kcal/mol

**Q.** What about the Tm of the same protein?
**A.** 64.9 °C

**Q.** And the “heat capacity change of unfolding” value?
**A.** 1.58 kcal/mol/K
